The text below walks through data of publication PMC10830117 (Science Advances, 2024).

This experiment concerns the target T1, Glutathione synthetase (GSS), full-length wild type, recombinant (human, UniProt P48637 1-474).
T1 sequence (looked up): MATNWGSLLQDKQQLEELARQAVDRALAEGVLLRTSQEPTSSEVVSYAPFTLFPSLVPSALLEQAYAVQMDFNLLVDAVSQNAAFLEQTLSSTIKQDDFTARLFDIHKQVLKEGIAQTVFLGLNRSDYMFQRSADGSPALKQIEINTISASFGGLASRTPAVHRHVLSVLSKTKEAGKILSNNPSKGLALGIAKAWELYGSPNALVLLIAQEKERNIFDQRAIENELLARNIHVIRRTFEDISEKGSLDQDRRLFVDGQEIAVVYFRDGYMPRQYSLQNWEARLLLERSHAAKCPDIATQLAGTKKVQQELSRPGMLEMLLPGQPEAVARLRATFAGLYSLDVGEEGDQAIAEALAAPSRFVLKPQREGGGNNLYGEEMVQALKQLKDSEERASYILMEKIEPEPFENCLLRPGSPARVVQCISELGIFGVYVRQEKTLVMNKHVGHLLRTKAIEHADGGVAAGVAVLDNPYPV
The experiment in a line: SPR.

B1: Human LMPTP-A (low-molecular weight protein tyrosine phosphatase, isoform A) (enzyme, UniProt P24666 1-158, looked up)
chain: MAEQATKSVLFVCLGNICRSPIAEAVFRKLVTDQNISENWRVDSAATSGYEIGNPPDYRGQSCMKRHGIPMSHVARQITKEDFATFDYILCMDESNLRDLNRKSNQVKTCKAKIELLGSYDPQKQLIIEDPYYGNDSDFETVYQQCVRCCRAFLEKAH
Regarding B1, the equilibrium dissociation constant (Kd) (usually the constant that tells how readily two partners part at equilibrium) worked out at 244 ± 2 nM and the stoichiometry N (as a rule, the number of molecules, sites or subunits per partner or assembly) is 1.
